Where two headings read alike, the source gives them in different places.
How the values were obtained:
[1] = target: T1, HLA-A3.2 (Homo sapiens, UniProt P04439); format: binding
T1 construct: endogenous in cells; host or cells: EBV transformed cell line GM3107 (protein purified from NP40 lysate)
Excerpt: (§1) The method utilizes purified class I molecules and radiolabeled synthetic probes based on consensus peptides. Competitor peptides tested for their binding to the class I molecules compete for this binding with the radiolabeled consensus peptides. The HLA-A1, A2.1, A3.2, A11.2, and A24 molecules were isolated from the following cell lines, respectively: the EBV (Eppstein Barr Virus) transformed cell line Steinlin, the EBV transformed cell line JY, the EBV transformed cell line GM3107, the cell line BVR and the EBV transformed cell line KT3. After large scale culture, cells were lysed in NP40 (Fluka Biochemika, Buchs, Switzerland) and the lysate was passed over two pre-columns of inactivated sepharose CL 4B and Prot A Sepharose. Class I molecules were then purified from the cell lysate by affinity chromatography using Prot A Sepharose beads conjugated with B2.23.2 (anti-HLA-B and HLA-C) and anti-human HLA. The lysate was first depleted of B and C molecules by repeated passage over the B2.23.2 column.
(§2) After two days at 23° C. the percent of MHC-bound radioactivity was measured by size exclusion chromatography on a TSK2000 gel filtration as described by Sette et al. (1992).
(§3) Probe peptides were iodinated by using the Chloramine T method described by Buus et al. (1987). The sequences of the probe peptides used for the aforementioned HLA molecules were […] (SEQ ID NO:76) for A1, […] (SEQ ID NO:77) for A2.1, […] (SEQ ID NO:78) for A3.2, […] (SEQ ID NO:79) for A11.2, and […] (SEQ ID NO:80) for A24.
(§4) Each competitor peptide was tested in two to four completely independent experiments. Since cysteine containing peptides are susceptible to (air) oxidation during synthesis and handling, these peptides were synthesized with an alanine instead of a cysteine.

[2] = target: T2, HLA-A2.1 (Homo sapiens, UniProt P04439, D140Y/D185E/D98H/E176V/E277Q/G131W/G231S/I119V/I121R/I166T/I218V/L300P/L318F/N151K/N90K/P208A/P217A/Q86G/Q94H/R138H/R169H/T345S); format: cell-based
T2 construct: endogenous in cells; host or cells: 174CEM.T2
Experimental: Of all peptides a dilution of 1 mg/ml in 0.9% NaCl was made.
174CEM.T2 cells were cultured in Iscovel's modified Dulbecco's medium (Biochrom KG Seromed Berlin, Germany: F0465) supplemented with 100 IU/ml penicillin (Biocades Pharma, Leiderdorp, The Netherlands), 100 μg/ml kanamycin (Sigma St. Louis, USA:K-0254), 2 mM glutamine (ICN Biomedicals Inc. Costa Mesa, Calif., USA:15-801-55) and 10% fetal calf serum (FCS, Hyclone Laboratories Inc. Logan, Utah, USA:A-1115-L). Cells were cultured at a density of 2.5×10^5/ml during 3 days at 37° C., 5% CO2 in humified air.
174CEM.T2 cells were washed twice in culture medium without FCS and put in serum-free culture medium to a density of 2×10^6 cells/ml. Of this suspension 40 μl was put into a V bottomed 96 well plate (Greiner GmbH, Frickenhausen, Germany: 651101) together with 10 μl of the individual peptide dilutions (of 1 mg/ml). The end concentration is 200 μg/ml peptide with 8×10^4 174CEM.T2 cells. This solution was gently agitated for 3 minutes after which an incubation time of 16 hours at 37° C., 5% CO2 in humified air took place. Then cells were washed once with 100 μl 0.9% NaCl, 0.5% bovine serum albumin (Sigma St. Louis, USA: A-7409), 0.02% NaN3 (Merck Darmstadt, Germany:822335). After a centrifuge round of 1200 rpm the pellet was resuspended in 50 μl of saturating amounts of HLA-A2.1 specific mouse monoclonal antibody BB7.2 for 30 minutes at 4° C. Then cells were washed twice and incubated for 30 minutes with F(ab)2 fragments of goat anti-mouse IgG that had been conjugated with […] (Tago Inc Burlingame, Calif., USA: 4350) in a dilution of 1:40 and a total volume of 25 μl.
After the last incubation, cells were washed twice and fluorescence was measured at 488 nanometer on a FACScan flow-cytometer (Becton Dickinson, Franklin Lakes, N.J., USA).
The 174CEM.T2 cell line expresses “empty” and unstable HLA-A2.1 molecules that can be stabilized when a peptide is binding to the peptide presenting groove of these molecules. […] This leads to an increase in cell surface expression of the HLA-A2.1 molecule.
With background fluorescence level (without adding peptides) set on a Fluorescence Index level of 0, binding of a peptide was regarded positive when the level of fluorescence was ≧0.5.

[3] = system: HLA-A11.2; assay: Immunochemical peptide-MHC binding assay, purified HLA-A11.2, radiolabeled probe […]; parameters: species or system human; conditions: for binding ratio to standard: IC50 of standard divided by IC50 of tested peptide, cysteines synthesized as alanine
Excerpt: as §1, §2, §3, §4

[4] = HLA-A3.2, IC50 of standard divided by IC50 of tested peptide, cysteines synthesized as alanine
[5] = HPV18 peptides, 200 μg/ml peptide, 16 hours, 174CEM.T2 cells
[6] = HPV18 peptides, 200 μg/ml peptide, 16 hours, 174CEM.T2 cells, background set on 0, binding positive when ≧0.5
[7] = HPV16 peptides, 200 μg/ml peptide, 16 hours, 174CEM.T2 cells
[8] = HPV16 peptides, 200 μg/ml peptide, 16 hours, 174CEM.T2 cells, background set on 0, binding positive when ≧0.5

T1 sequence (P04439 25-365): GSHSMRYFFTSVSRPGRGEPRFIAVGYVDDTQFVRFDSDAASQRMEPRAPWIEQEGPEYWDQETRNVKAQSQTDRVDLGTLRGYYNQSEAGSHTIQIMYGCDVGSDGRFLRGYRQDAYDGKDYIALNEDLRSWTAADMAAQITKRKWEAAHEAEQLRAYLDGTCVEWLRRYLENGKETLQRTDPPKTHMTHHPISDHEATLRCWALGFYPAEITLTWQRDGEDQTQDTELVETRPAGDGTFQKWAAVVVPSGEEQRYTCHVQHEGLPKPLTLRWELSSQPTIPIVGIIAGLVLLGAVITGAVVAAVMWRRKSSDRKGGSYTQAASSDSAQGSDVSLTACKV
T1 sequence (P61769 21-119, further chain): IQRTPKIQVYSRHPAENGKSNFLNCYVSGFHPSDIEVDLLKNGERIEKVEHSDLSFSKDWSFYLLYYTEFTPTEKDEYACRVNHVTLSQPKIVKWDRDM

CCRSSRTRR [residues 146-154 of HPV16 protein E6]
binding ratio to standard [1, 4]: 0.0020

QLFLNTLSF [HPV18 peptide 12, residues 88-96 of HPV18 protein E7]
MF (mean HLA-A2.1 fluorescence) [2, 5]: 258.2
FI (Fluorescence Index) [2, 6]: 0.8

IILECVYCK [residues 33-41 of HPV16 protein E6]
binding ratio to standard [3]: 6.7000
binding ratio to standard [1, 4]: 1.5000

EITCVYCKT [HPV18 peptide 4, residues 29-37 of HPV18 protein E6]
MF (mean HLA-A2.1 fluorescence) [2, 5]: 206.0
FI (Fluorescence Index) [2, 6]: 0.5

TLEDLLMGT [HPV16 peptide 15, residues 78-86 of HPV16 protein E7]
MF (mean HLA-A2.1 fluorescence) [2, 7]: 182.8
FI (Fluorescence Index) [2, 8]: 1.8

SLYGTTLEQ [residues 89-97 of HPV16 protein E6]
binding ratio to standard [1, 4]: 0.0080

ELQTTIHDI [HPV16 peptide 4, residues 25-33 of HPV16 protein E6]
MF (mean HLA-A2.1 fluorescence) [2, 7]: 108.0
FI (Fluorescence Index) [2, 8]: 0.6

PLCDLLIRC [HPV16 peptide 10, residues 102-110 of HPV16 protein E6]
MF (mean HLA-A2.1 fluorescence) [2, 7]: 204.8
FI (Fluorescence Index) [2, 8]: 2.1

LTNTGLYNL [HPV18 peptide 9, residues 93-101 of HPV18 protein E6]
MF (mean HLA-A2.1 fluorescence) [2, 5]: 352.5
FI (Fluorescence Index) [2, 6]: 1.5

GTLGIVCPI [HPV16 peptide 17, residues 85-93 of HPV16 protein E7]
MF (mean HLA-A2.1 fluorescence) [2, 7]: 216.1
FI (Fluorescence Index) [2, 8]: 2.3

TLQDIVLHL [HPV18 peptide 10]
FI (Fluorescence Index) [2]: 2.7
MF (mean HLA-A2.1 fluorescence) [2]: 519.6

HLDKKQRFH [residues 125-133 of HPV16 protein E6]
binding ratio to standard [1, 4]: 0.4400

IHDIILECV [HPV16 peptide 7, residues 30-38 of HPV16 protein E6]
MF (mean HLA-A2.1 fluorescence) [2, 7]: 150.7
FI (Fluorescence Index) [2, 8]: 1.3

LSFVCPWCA [HPV18 peptide 14, residues 94-102 of HPV18 protein E7]
MF (mean HLA-A2.1 fluorescence) [2, 5]: 262.0
FI (Fluorescence Index) [2, 6]: 0.9

CC[C@H](C)[C@H](NC(=O)CNC(=O)[C@H](CC(C)C)NC(=O)[C@@H](N)[C@@H](C)O)C(=O)N[C@H](C(=O)N[C@@H](CS)C(=O)N1CCC[C@H]1C(=O)N[C@H](C(=O)N[C@@H](CS)C(=O)O)[C@@H](C)CC)C(C)C [HPV16 peptide 18]
MF (mean HLA-A2.1 fluorescence) [2, 7]: 227.8
FI (Fluorescence Index) [2, 8]: 2.5

SLQDIEITC [HPV18 peptide 2, residues 24-32 of HPV18 protein E6]
MF (mean HLA-A2.1 fluorescence) [2, 5]: 243.9
FI (Fluorescence Index) [2, 6]: 0.7

ELTEVFEFA [HPV18 peptide 6]
FI (Fluorescence Index) [2]: 1.1
MF (mean HLA-A2.1 fluorescence) [2]: 289.0

QLCTELQTT [HPV16 peptide 2, residues 21-29 of HPV16 protein E6]
MF (mean HLA-A2.1 fluorescence) [2, 7]: 211.9
FI (Fluorescence Index) [2, 8]: 2.2

FAFKDLFVV [HPV18 peptide 7, residues 47-55 of HPV18 protein E6]
MF (mean HLA-A2.1 fluorescence) [2, 5]: 462.9
FI (Fluorescence Index) [2, 6]: 2.3

LFLNTLSFV [HPV18 peptide 13, residues 89-97 of HPV18 protein E7]
MF (mean HLA-A2.1 fluorescence) [2, 5]: 360.3
FI (Fluorescence Index) [2, 6]: 1.6

TGRCMSCCR [residues 140-148 of HPV16 protein E6]
binding ratio to standard [3]: 0.0012

AVDLYHFLK [reference compound]
IC50 ([3]; read-out: 50% inhibition dose for the probe, unlabeled probe peptide): 9 nM

TIHDIILEC [HPV16 peptide 6, residues 29-37 of HPV16 protein E6]
MF (mean HLA-A2.1 fluorescence) [2, 7]: 184.5
FI (Fluorescence Index) [2, 8]: 1.8

DTLEKLTNT [HPV18 peptide 8, residues 88-96 of HPV18 protein E6]
MF (mean HLA-A2.1 fluorescence) [2, 5]: 238.2
FI (Fluorescence Index) [2, 6]: 0.7

FQQLFLNTL [HPV18 peptide 11, residues 86-94 of HPV18 protein E7]
MF (mean HLA-A2.1 fluorescence) [2, 5]: 244.5
FI (Fluorescence Index) [2, 6]: 0.8

KLPDLCTEL [HPV18 peptide 1, residues 13-21 of HPV18 protein E6]
MF (mean HLA-A2.1 fluorescence) [2, 5]: 439.3
FI (Fluorescence Index) [2, 6]: 2.1

KCDSTLRLC [residues 60-68 of HPV16 protein E7]
binding ratio to standard [1, 4]: 0.0012

TTLEQQYNK [residues 93-101 of HPV16 protein E6]
binding ratio to standard [1, 4]: 0.0780

QQYNKPLCD [residues 97-105 of HPV16 protein E6]
binding ratio to standard [1, 4]: 0.0045

RHYCYSLYG [residues 84-92 of HPV16 protein E6]
binding ratio to standard [1, 4]: 0.0036

LLMGTLGIV [HPV16 peptide 16]
FI (Fluorescence Index) [2]: 0.8
MF (mean HLA-A2.1 fluorescence) [2]: 118.8

KFYSKISEY [residues 75-83 of HPV16 protein E6]
binding ratio to standard [1]: 0.0100

AMFQDPQER [residues 7-15 of HPV16 protein E6]
binding ratio to standard [3]: 0.8400

RLCVQSTHV [HPV16 peptide 14, residues 66-74 of HPV16 protein E7]
MF (mean HLA-A2.1 fluorescence) [2, 7]: 250.0
FI (Fluorescence Index) [2, 8]: 2.8

KTVLELTEV [HPV18 peptide 5, residues 36-44 of HPV18 protein E6]
MF (mean HLA-A2.1 fluorescence) [2, 5]: 467.5
FI (Fluorescence Index) [2, 6]: 2.3

YMLDLQPET [HPV16 peptide 12, residues 11-19 of HPV16 protein E7]
MF (mean HLA-A2.1 fluorescence) [2, 7]: 283.9
FI (Fluorescence Index) [2, 8]: 3.3

VCPICSQKP [residues 90-98 of HPV16 protein E7]
binding ratio to standard [3]: 0.0012

LCTELQTTI [HPV16 peptide 3, residues 22-30 of HPV16 protein E6]
MF (mean HLA-A2.1 fluorescence) [2, 7]: 113.6
FI (Fluorescence Index) [2, 8]: 0.7

Reference: patent US7364741B1, “Peptides of human Papilloma virus for use in human T cell response inducing compositions” (priority 1992, dated 2008)
